Assay [1] has as its target T1, mOrai1-hOrai1 ECL2 chimeric protein (human/mouse chimera, UniProt Q8BWG9 1-304 (mouse entry)).
T1 construct: mouse Orai1 with human ECL2; also called Ch
The assay can be described thus: FACS, 293EBNA, RFI-POC grade. More on the design: concentration or dose not given beside the values. An excerpt:
(§1) FIG. 16A-D illustrates the results of FACS analysis showing binding to the indicated mOrai1-hOrai1 ECL2 chimeric mutants expressed on the surface of HEK-293-EBNA cells. Transfected cells were stained first with recombinant monoclonal antibodies then counter-stained with a secondary phycoerythrin-labeled goat (“Gt”) anti-human (“Hu”) IgG F(ab′)₂ antibody fragment and visualized using FACS. In FIG. 16B and FIG. 16D, The values of Relative Fluorescence Intensity as Percent of Control (RFI-POC) are calculated from the relative fluorescence intensity geometric mean (Geo Mean). The geometric mean is an average calculated by multiplying a series of numbers and taking the nth root where n is the number of numbers in the series. It is a statistical average of a set of transformed numbers often used to represent a central tendency in a highly variable data set that minimizes the effects of extreme values.
(§2) Table 11A and Table 11B feature a schematic representation of the POC data from FIG. 16B and FIG. 16D, respectively, where the binding results are recorded as (+++) denoting binding POC from 40% to 100%, (++) for POC of 5% to less than 40%, (+) for POC from 1% to less than 5% and (−) as lack of binding with POC less than 1%.
(Flow cytometry measures light scatter and fluorescence of single cells or particles in a stream.)

Assay [2] deals with T2, mOrai1-hOrai1 ECL2 (VIV) protein (human/mouse chimera, UniProt Q8BWG9 1-304 (mouse entry)).
T2 construct: also called Ch
T2 sequence (Q8BWG9 other isoform, or with tags, fused parts or gaps): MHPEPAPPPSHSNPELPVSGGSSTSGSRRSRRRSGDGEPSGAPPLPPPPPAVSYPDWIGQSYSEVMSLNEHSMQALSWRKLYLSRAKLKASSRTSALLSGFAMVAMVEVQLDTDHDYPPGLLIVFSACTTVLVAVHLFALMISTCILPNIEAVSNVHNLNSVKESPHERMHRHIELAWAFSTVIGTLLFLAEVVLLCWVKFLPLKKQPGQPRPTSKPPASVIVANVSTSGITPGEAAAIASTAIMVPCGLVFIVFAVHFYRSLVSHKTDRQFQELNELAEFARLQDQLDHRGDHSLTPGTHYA
The assay can be described thus: FACS, 293EBNA, RFI-POC grade. More on the design: concentration or dose not given beside the values.
Text: as §1, §2

Assay [3] concerns the target T3, mOrai1-hOrai1 ECL2 (HSD) protein (human/mouse chimera, UniProt Q8BWG9 1-304 (mouse entry)).
T3 construct: also called Ch
The assay can be described thus: FACS, 293EBNA, RFI-POC grade. More on the design: concentration or dose not given beside the values.
Text: as §1, §2

The next assay has as its target T4, human Orai2 (human, UniProt Q96SN7 1-254).
T4 construct: also called hOrai2
The assay is described as follows: FACS, 293EBNA transfectants. Here is the method: (§3) Purified monoclonal antibodies from hybridoma supernantants of the subclones derived from initial hits were assessed for binding to human Orai1, Orai2 and Orai3 expressed on HEK-293-EBNA cells along with vector transfected control parental cells. Cells stained with or without primary mAbs were counter-stained with a secondary phycoerythrin-labeled goat (“Gt”) anti-human (“Hu”) IgG F(ab′)₂ antibody fragment and visualized using FACS.
(§4) FACS binding analysis. Transfected 293EBNA cells transiently expressed hOrai1, human Orai2, or human Orai3 (results of binding comparison in FIG. 11A-B), or hOrai1(S218G) (results of binding comparison in FIG. 12A-B); or hOrai1 and hSTIM1; mOrai1 and mouse STIM1; or rat Orai1 and rat STIM1 (results of binding comparison in FIG. 13). The transfected cells were harvested at 48 hours post-transfection. Cells transfected with pcDNA3.1 were used as negative controls. Cells were washed once with ice-cold 1×PBS, resuspended in ice-cold FACS buffer (1×D-PBS+2% goat serum), and 2×10⁵ cells in […] were stained per antibody combination. All antibody incubation steps were performed on ice for 1 hour. […] Next, the unlabelled antibody was detected using goat F(ab′)₂ anti-mouse or anti-human IgG-phycoerythrin (IgG-PE), followed by a wash with 200 μL of ice-cold FACS buffer before flow cytometry analysis. Unstained cells and cells stained with detecting antibodies were used as negative controls. The values of relative level of fluorescence were calculated using FCS Express (De Novo Software) and mean values were calculated using log-transformed data (geometric mean). Purified mAbs were assessed by FACS assay for their ability to specifically bind human Orai1, Orai2 and Orai3 proteins expressed on HEK-293 cells.

A further assay concerns the target human Orai3 (human, UniProt Q9BRQ5 1-295). The assay can be described thus: FACS, 293EBNA transfectants. Here is the method:
as §3, §4

Another assay has as its target T5, mouse Orai1 (mouse, UniProt Q8BWG9 1-304).
T5 construct: co-expressed with mouse STIM1; also called mOrai1
The assay can be described thus: FACS, 293EBNA transfectants with STIM1, thapsigargin. Here is the method:
(§5) FIG. 13A-B illustrates the results of FACS analysis showing binding to human Orai1 expressed on the surface of HEK-293-EBNA cells that were treated with 2 μM Thapsigargin. HEK-293-EBNA cells were transiently transfected with human Orai1 and human STIM1, mouse Orai1 and mouse STIM1, rat Orai1 and rat STIM1 and control empty vector. Transfected cells were stained first with recombinant monoclonal antibodies then counter-stained with a secondary phycoerythrin-labeled Gt anti-Hu IgG F(ab′)₂ or Gt anti-Mu IgG F(ab′)₂ antibody fragment, as appropriate, and visualized using FACS.
as §4

The next assay concerns the target T6, rat Orai1 (rat, UniProt Q5M848 1-304).
T6 construct: co-expressed with rat STIM1; also called rOrai1
The description is as above. Here is the method:
as §5, §4

Assay [4] has as its target T7, mOrai1-hOrai1 ECL2 (…) protein (human/mouse chimera, UniProt Q8BWG9 1-304 (mouse entry)).
T7 construct: also called Ch
The assay is described as follows: flow cytometry on HEK-293 cells transfected with the chimera (loss of binding experiment).
T7 sequence (Q8BWG9 other isoform, or with tags, fused parts or gaps): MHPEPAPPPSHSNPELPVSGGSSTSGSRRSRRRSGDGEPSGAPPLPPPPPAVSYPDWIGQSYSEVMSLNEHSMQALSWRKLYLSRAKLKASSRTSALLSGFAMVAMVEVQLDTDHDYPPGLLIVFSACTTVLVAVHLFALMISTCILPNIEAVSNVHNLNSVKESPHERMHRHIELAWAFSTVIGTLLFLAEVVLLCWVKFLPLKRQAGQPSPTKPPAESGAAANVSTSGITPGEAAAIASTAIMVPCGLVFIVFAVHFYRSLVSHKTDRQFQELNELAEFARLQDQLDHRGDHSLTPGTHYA

Assay [5] has as its target T8, mOrai1-hOrai1 ECL2 (SPTKPPAE) protein (human/mouse chimera, UniProt Q8BWG9 1-304 (mouse entry)).
T8 construct: also called Ch
The assay is described as above.

The target in assay [6] is T9, mOrai1-hOrai1 ECL2 (KPPAE) protein (human/mouse chimera, UniProt Q8BWG9 1-304 (mouse entry)).
T9 construct: also called Ch
T9 sequence (Q8BWG9 other isoform, or with tags, fused parts or gaps): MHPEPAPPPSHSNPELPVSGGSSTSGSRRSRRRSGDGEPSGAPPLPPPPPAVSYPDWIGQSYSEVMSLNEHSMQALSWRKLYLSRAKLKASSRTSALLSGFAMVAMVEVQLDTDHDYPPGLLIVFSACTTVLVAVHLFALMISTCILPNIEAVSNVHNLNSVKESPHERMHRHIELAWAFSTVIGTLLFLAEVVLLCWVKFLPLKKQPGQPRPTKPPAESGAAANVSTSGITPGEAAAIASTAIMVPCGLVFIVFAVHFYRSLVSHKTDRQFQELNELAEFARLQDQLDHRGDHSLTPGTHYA
The assay is described as above.

In assay [7] the target is T10, mOrai1-hOrai1 ECL2 (…) protein (human/mouse chimera, UniProt Q8BWG9 1-304 (mouse entry)).
T10 construct: also called Ch
The description is as above. This is another data set of the same source.
T10 sequence (Q8BWG9 other isoform, or with tags, fused parts or gaps): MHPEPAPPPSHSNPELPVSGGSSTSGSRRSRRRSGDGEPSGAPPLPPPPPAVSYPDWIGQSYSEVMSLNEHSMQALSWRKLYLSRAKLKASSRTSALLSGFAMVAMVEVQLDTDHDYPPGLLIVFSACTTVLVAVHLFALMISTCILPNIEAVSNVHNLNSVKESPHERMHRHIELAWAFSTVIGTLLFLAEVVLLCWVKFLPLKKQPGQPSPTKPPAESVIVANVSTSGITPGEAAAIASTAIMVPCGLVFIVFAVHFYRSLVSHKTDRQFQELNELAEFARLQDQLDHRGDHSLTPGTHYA

In assay [8] the target is T11, mOrai1-hOrai1 ECL2 (…) protein (human/mouse chimera, UniProt Q8BWG9 1-304 (mouse entry)).
T11 construct: also called Ch
The assay is described as above. The source holds these as a separate data set.
T11 sequence (Q8BWG9 other isoform, or with tags, fused parts or gaps): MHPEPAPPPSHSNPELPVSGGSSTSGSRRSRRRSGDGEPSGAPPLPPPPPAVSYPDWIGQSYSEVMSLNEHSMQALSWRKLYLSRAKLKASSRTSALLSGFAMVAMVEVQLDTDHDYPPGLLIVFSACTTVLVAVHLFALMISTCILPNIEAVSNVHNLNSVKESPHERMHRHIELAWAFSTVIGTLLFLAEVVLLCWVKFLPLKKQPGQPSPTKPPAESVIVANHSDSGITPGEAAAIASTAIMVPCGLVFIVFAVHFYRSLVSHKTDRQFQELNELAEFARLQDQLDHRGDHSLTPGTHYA

Assay [9] addresses T12, mOrai1-hOrai1 ECL2 (…) protein (human/mouse chimera, UniProt Q8BWG9 1-304 (mouse entry)).
T12 construct: also called Ch
Described as above. The source holds these as a separate data set.
T12 sequence (Q8BWG9 other isoform, or with tags, fused parts or gaps): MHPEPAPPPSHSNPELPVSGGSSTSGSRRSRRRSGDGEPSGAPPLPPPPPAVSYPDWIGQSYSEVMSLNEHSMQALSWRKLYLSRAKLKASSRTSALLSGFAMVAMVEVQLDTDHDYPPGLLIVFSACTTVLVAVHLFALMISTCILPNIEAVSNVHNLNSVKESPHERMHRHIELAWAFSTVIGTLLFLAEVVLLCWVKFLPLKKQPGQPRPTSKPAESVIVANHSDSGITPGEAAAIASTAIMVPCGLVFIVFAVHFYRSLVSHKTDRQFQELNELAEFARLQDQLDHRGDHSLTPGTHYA

For assay [10], the target named is T13, mOrai1-hOrai1 ECL2 (AESVIV) protein (human/mouse chimera, UniProt Q8BWG9 1-304 (mouse entry)).
T13 construct: also called Ch
T13 sequence (Q8BWG9 other isoform, or with tags, fused parts or gaps): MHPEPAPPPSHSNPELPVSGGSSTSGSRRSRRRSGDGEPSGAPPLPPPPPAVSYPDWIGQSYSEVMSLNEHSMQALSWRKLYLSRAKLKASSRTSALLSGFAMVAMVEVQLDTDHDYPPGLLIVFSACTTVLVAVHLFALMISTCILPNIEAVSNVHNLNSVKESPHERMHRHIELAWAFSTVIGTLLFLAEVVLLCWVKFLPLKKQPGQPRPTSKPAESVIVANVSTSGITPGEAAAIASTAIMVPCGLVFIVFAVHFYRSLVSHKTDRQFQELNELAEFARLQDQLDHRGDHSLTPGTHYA
The description is as above.

Residue numbers refer to the chain shown, from its start.

T1 sequence (Q8BWG9 other isoform, or with tags, fused parts or gaps mutant): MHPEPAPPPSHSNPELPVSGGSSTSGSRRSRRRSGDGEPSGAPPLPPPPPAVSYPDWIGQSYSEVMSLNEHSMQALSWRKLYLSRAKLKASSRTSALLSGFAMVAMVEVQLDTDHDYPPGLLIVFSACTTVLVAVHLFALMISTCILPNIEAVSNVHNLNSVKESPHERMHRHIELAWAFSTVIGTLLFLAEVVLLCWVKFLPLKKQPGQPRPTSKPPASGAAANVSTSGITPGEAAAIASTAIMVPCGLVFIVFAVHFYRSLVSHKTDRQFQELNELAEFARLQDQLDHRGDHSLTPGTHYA
T5 sequence (Q8BWG9 whole entry): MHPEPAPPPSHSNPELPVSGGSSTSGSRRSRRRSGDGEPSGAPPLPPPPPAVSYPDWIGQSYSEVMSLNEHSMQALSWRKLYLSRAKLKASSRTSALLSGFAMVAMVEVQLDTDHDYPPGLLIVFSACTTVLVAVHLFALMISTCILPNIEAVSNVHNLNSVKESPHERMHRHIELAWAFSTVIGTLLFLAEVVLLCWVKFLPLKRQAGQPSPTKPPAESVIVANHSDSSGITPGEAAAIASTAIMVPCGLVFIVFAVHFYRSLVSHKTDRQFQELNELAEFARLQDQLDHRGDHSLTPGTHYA
T4 sequence (Q96SN7 whole entry): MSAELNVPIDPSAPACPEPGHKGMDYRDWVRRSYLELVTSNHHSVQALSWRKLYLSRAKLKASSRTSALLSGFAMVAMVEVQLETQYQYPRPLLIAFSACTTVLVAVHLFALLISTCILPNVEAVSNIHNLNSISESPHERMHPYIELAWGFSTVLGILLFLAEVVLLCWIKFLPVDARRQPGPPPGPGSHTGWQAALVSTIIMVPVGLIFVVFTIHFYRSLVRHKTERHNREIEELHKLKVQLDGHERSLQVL
T8 sequence (Q8BWG9 other isoform, or with tags, fused parts or gaps): as the sequence (Q8BWG9 other isoform, or with tags, fused parts or gaps mutant) above, with R212S, S215K, K216P, P218A, A219E counted along it
T3 sequence (Q8BWG9 other isoform, or with tags, fused parts or gaps): as the sequence (Q8BWG9 other isoform, or with tags, fused parts or gaps mutant) above, with V226H, T228D counted along it
T6 sequence (Q5M848 whole entry): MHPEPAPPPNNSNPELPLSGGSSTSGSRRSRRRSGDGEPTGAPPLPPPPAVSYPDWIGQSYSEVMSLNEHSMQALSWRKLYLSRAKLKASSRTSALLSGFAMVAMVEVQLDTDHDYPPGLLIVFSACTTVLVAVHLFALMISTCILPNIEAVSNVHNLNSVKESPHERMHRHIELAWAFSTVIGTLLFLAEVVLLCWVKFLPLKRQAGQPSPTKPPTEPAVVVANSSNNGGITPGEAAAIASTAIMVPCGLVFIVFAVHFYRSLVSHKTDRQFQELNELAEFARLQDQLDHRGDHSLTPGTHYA

B1: mAb 5F7.1 (antibody, human IgG2, lambda)
heavy: QVQLVQSGAEVKKPGASVKVPCKASGYTFTDYYINWVRQAPGQGLEWMGWINPNNGGTNYAQKFQGRVTMTRDTSISTAYMELRRLRSDDTAVYYCARERGGYEDWFDPWGQGTLVTVSSASTKGPSVFPLAPCSRSTSESTAALGCLVKDYFPEPVTVSWNSGALTSGVHTFPAVLQSSGLYSLSSVVTVPSSNFGTQTYTCNVDHKPSNTKVDKTVERKCCVECPPCPAPPVAGPSVFLFPPKPKDTLMISRTPEVTCVVVDVSHEDPEVQFNWYVDGVEVHNAKTKPREEQFNSTFRVVSVLTVVHQDWLNGKEYKCKVSNKGLPAPIEKTISKTKGQPREPQVYTLPPSREEMTKNQVSLTCLVKGFYPSDIAVEWESNGQPENNYKTTPPMLDSDGSFFLYSKLTVDKSRWQQGNVFSCSVMHEALHNHYTQKSLSLSPGK
light: QSVLTQPPSVSGAPGQRVTISCTGSSSNIGAGFDVHWYQQLPVTAPKLLIYGNRNRPSGVPARFSGSKSGTSASLAITGLQAEDEAVYYCQSYDSSLTVFGGGTKLTVLGQPKANPTVTLFPPSSEELQANKATLVCLISDFYPGAVTVAWKADGSPVKAGVETTKPSKQSNNKYAASSYLSLTPEQWKSHRSYSCQVTHEGSTVEKTVAPTECS
notes: fully human IgG2 lambda, Campaign 2
Take B1: the “POC (percent of control, FACS Geo Mean relative to binding to Ch. 1)” value in [1], in [2] and in assay [3] was 40 to 100% in each case. Moreover, the binding result with human Orai2 is on record as “no binding (tested: 1 µg)”; with human Orai3, “no binding (tested: 1 µg)”; with mouse Orai1, “no binding (tested: 1 µg)”; with rat Orai1 it was “no binding (tested: 1 µg)”; in [4], “no binding”; in assay [5] it was “no binding”. Besides, the binding result in assay [6], in [7], in [8], in assay [9] and in assay [10] was “no binding” throughout.

B2: mAb 5A4.2 (antibody, human IgG2, lambda, V domains shown)
VH: QVQLVQSGAEVKKPGASVKVSCKASGYTFTDYYMNWVRQAPGQGLEWMGWINPNSGGTKYAQKFQGRVTMTRDTSIRTAYMELSRLRSDDTAVYYCSREYGGNSDWFDPWGQGTLVTVSS
VL: QSVLTQPPSVSGAPGQRVTISCTGSSSNIGAGYDVHWYQQLPGTAPKLLIYGNSNRPSGVPDRFSGSKSGTSASLAITGLQAEDEADYYCQSYDNRLSDSVVIGGGTKLTVQG
notes: as for B1
As for B2, the “POC (percent of control, FACS Geo Mean relative to binding to Ch. 1)” value in [1], in assay [2] and in assay [3] was 40 to 100% each time. The binding result is “no binding (tested: 1 µg)” with human Orai2; “no binding (tested: 1 µg)” in the assay with human Orai3; “no binding (tested: 1 µg)” in the assay with mouse Orai1; “no binding (tested: 1 µg)” with rat Orai1; “no binding” in [4]; “no binding” in assay [5]. The binding result in [6], in assay [7], in assay [8], in assay [9] and in assay [10] was “no binding” in each case.

B3: mAb 5C1.1 (antibody, human IgG2, lambda, V domains shown)
VH: B2 VH with S97A
VL: B2 VL with T110A
notes: as for B1
Regarding B3, the “POC (percent of control, FACS Geo Mean relative to binding to Ch. 1)” value in assay [1], in assay [2] and in assay [3] was 40 to 100% in each case. The binding result with human Orai2 was “no binding (tested: 1 µg)”; with human Orai3, “no binding (tested: 1 µg)”; in the assay with mouse Orai1, “no binding (tested: 1 µg)”; in the assay with rat Orai1, “no binding (tested: 1 µg)”; in [4], “no binding”; in [5], “no binding”. Besides, the binding result in assay [6], in [7], in [8], in assay [9] and in assay [10] was “no binding” throughout.

B4: mAb 5F2.1 (antibody, human IgG2, lambda, V domains shown)
VH: B2 VH with K59H, R77S, S97A, N103Y
VL: B2 VL with S26R, G43R, G52D, T71S, R96S, V102L, Q112L
notes: as for B1
On to B4, for which the “POC (percent of control, FACS Geo Mean relative to binding to Ch. 1)” value in assay [1], in assay [2] and in assay [3] was 40 to 100% throughout. In addition, the binding result is “no binding (tested: 1 µg)” in the assay with human Orai2; “no binding (tested: 1 µg)” with human Orai3; “no binding (tested: 1 µg)” in the assay with mouse Orai1; “no binding (tested: 1 µg)” in the assay with rat Orai1; “no binding” in assay [4]; “no binding” in assay [5]. Moreover, the binding result in assay [6], in assay [7], in assay [8], in [9] and in assay [10] was “no binding” in each case.

Values taken from patent US20120231006A1 (Amgen, published 2012).
